Results from IntAct's records for PubMed 31515488.

B1: Alpha-taxilin (Homo sapiens), P40222 (parent)
chain: MKNQDKKNGAAKQSNPKSSPGQPEAGPEGAQERPSQAAPAVEAEGPGSSQAPRKPEGAQARTAQSGALRDVSEELSRQLEDILSTYCVDNNQGGPGEDGAQGEPAEPEDAEKSRTYVARNGEPEPTPVVNGEKEPSKGDPNTEEIRQSDEVGDRDHRRPQEKKKAKGLGKEITLLMQTLNTLSTPEEKLAALCKKYAELLEEHRNSQKQMKLLQKKQSQLVQEKDHLRGEHSKAVLARSKLESLCRELQRHNRSLKEEGVQRAREEEEKRKEVTSHFQVTLNDIQLQMEQHNERNSKLRQENMELAERLKKLIEQYELREEHIDKVFKHKDLQQQLVDAKLQQAQEMLKEAEERHQREKDFLLKEAVESQRMCELMKQQETHLKQQLALYTEKFEEFQNTLSKSSEVFTTFKQEMEKMTKKIKKLEKETTMYRSRWESSNKALLEMAEEKTVRDKELEGLQVKIQRLEKLCRALQTERNDLNKRVQDLSAGGQGSLTDSGPERRPEGPGAQAPSSPRVTEAPCYPGAPSTEASGQTGPQEPTSARA
B2: E3 ubiquitin-protein ligase ARIH2 (Homo sapiens), O95376 (parent)
chain: MSVDMNSQGSDSNEEDYDPNCEEEEEEEEDDPGDIEDYYVGVASDVEQQGADAFDPEEYQFTCLTYKESEGALNEHMTSLASVLKVSHSVAKLILVNFHWQVSEILDRYKSNSAQLLVEARVQPNPSKHVPTSHPPHHCAVCMQFVRKENLLSLACQHQFCRSCWEQHCSVLVKDGVGVGVSCMAQDCPLRTPEDFVFPLLPNEELREKYRRYLFRDYVESHYQLQLCPGADCPMVIRVQEPRARRVQCNRCNEVFCFKCRQMYHAPTDCATIRKWLTKCADDSETANYISAHTKDCPKCNICIEKNGGCNHMQCSKCKHDFCWMCLGDWKTHGSEYYECSRYKENPDIVNQSQQAQAREALKKYLFYFERWENHNKSLQLEAQTYQRIHEKIQERVMNNLGTWIDWQYLQNAAKLLAKCRYTLQYTYPYAYYMESGPRKKLFEYQQAQLEAEIENLSWKVERADSYDRGDLENQMHIAEQRRRTLLKDFHDT
B3: GRIP and coiled-coil domain-containing protein 1 (Homo sapiens), Q96CN9 (parent)
chain: MEKFGMNFGGGPSKKDLLETIETQKKQLLQYQARLKDVVRAYKSLLKEKEALEASIKVLSVSHEADVGLAGVQLPGLTFPDSVDDRCSTHSEDSTGTATSLDTAASLTSTKGEFGVEDDRPARGPPPPKSEEASWSESGVSSSSGDGPFAGGEVDKRLHQLKTQLATLTSSLATVTQEKSRMEASYLADKKKMKQDLEDASNKAEEERARLEGELKGLQEQIAETKARLITQQHDRAQEQSDHALMLRELQKLLQEERTQRQDLELRLEETREALAGRAYAAEQMEGFELQTKQLTREVEELKSELQAIRDEKNQPDPRLQELQEEAARLKSHFQAQLQQEMRKTALAEDQLRQQSQVEEQRVAALENQISEVSELLGTYEKAKQKDQLAIQKLKERILQLDLENKTLALAASSRSPLDSHGEESSLDVNVLKDKMEKLKRLLQVAARKSQVTLDVEKLCDLEIMPSSEAADGEKATALYYQQELKQLKEEFERYKMRAQVVLKSKNTKDGNLGKELEAAQEQLAELKEKYISLRLSCEELEHQHQQEADDWKQELARLQQLHRQELERCQLDFRDRTLKLEEELHKQRDRALAVLTEKDLELEQLRSVALASGLPGRRSPVGGGGPGDPADTSSSDSLTQALQLAAANEPTFFLYAEQLARKEVEITSLRKQKHRLEVEVHQLQDRLLEEGERHREEVAALQSHIEKNIRDQSREGANLEYLKNIIYRFLTLPDSLGRQQTLTAILTILHFSPEEKQVIMRLPTSASWWPSGKR
partner: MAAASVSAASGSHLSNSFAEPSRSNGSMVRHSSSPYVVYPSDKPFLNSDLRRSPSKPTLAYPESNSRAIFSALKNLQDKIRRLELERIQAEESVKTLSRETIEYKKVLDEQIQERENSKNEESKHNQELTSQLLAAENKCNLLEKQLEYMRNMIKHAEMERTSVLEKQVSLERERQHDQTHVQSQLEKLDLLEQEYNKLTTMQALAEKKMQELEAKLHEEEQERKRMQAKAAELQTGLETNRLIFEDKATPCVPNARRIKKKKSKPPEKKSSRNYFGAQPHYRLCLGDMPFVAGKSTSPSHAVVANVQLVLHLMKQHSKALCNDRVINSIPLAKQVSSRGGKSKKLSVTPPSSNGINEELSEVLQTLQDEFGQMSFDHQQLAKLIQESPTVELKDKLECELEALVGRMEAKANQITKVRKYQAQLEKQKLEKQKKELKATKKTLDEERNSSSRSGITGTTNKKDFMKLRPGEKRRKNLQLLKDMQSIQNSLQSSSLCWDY

Variants of: B1
Details: with cc136_human CCDC136, Q96JN2
Sequence of cc136_human CCDC136, Q96JN2 (Q96JN2 whole entry): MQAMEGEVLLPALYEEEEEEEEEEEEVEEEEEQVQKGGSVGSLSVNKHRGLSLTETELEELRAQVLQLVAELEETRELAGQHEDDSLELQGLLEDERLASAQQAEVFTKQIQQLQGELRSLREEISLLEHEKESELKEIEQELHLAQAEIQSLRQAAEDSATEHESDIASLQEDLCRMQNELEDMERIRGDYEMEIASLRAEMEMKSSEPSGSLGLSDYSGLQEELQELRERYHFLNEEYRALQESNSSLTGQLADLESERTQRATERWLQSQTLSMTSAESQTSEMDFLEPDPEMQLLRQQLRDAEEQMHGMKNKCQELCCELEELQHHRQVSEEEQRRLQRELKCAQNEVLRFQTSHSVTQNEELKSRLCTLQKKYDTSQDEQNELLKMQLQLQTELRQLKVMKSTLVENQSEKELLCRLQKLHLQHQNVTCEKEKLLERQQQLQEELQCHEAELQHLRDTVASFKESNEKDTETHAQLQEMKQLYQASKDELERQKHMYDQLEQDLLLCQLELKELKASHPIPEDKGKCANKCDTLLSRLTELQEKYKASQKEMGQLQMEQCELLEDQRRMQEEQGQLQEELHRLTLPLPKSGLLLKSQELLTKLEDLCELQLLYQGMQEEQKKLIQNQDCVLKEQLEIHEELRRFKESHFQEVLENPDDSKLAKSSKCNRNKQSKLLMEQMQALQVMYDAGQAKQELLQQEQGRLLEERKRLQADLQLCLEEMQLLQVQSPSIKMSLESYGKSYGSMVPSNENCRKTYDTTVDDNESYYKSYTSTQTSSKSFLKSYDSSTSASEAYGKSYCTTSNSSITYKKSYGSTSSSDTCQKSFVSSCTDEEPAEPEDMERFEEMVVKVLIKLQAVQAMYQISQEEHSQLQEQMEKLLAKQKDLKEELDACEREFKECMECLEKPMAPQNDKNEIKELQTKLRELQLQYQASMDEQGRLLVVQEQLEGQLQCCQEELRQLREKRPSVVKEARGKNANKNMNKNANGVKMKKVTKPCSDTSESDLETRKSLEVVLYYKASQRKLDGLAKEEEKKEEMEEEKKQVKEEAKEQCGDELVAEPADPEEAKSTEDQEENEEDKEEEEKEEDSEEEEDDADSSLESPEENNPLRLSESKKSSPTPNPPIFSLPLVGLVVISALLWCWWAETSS
For S514R, the “effect of a mutation on the interaction” value was “with no effect”. P541S was tested, and the “effect of a mutation on the interaction” value was “with no effect”.

Variants of: B1
Details: with tfp11_human TFIP11, Q9UBB9
Sequence of tfp11_human TFIP11, Q9UBB9 (Q9UBB9 whole entry): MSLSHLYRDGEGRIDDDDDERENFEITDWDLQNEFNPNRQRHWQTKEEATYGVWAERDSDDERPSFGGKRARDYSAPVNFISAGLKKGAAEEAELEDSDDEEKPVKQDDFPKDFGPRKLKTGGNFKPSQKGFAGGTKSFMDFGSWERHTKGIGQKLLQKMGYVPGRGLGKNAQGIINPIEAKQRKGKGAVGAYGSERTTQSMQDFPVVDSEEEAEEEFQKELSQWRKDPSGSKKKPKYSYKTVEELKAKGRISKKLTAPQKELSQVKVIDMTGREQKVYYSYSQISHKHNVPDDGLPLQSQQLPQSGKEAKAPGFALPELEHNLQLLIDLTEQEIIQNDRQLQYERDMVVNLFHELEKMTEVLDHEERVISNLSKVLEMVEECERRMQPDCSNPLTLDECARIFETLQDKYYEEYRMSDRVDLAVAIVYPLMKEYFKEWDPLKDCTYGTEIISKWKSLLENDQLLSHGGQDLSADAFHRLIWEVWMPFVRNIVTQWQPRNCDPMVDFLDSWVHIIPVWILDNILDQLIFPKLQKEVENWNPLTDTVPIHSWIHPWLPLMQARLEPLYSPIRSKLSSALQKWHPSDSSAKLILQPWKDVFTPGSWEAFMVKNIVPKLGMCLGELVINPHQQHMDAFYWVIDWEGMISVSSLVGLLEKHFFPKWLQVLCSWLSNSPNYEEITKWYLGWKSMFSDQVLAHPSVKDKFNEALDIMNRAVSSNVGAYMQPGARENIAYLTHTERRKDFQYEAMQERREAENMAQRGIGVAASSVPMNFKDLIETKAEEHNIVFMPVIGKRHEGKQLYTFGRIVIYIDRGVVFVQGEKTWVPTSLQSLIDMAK
With S514R the “effect of a mutation on the interaction” value was “with no effect”. For P541S, the “effect of a mutation on the interaction” value was “with no effect”. In the case of R154G, the “effect of a mutation on the interaction” value is reported as “disrupting interaction strength”.

Variants of: B1
Details: with ndc80_human NDC80, O14777
Sequence of ndc80_human NDC80, O14777 (O14777 whole entry): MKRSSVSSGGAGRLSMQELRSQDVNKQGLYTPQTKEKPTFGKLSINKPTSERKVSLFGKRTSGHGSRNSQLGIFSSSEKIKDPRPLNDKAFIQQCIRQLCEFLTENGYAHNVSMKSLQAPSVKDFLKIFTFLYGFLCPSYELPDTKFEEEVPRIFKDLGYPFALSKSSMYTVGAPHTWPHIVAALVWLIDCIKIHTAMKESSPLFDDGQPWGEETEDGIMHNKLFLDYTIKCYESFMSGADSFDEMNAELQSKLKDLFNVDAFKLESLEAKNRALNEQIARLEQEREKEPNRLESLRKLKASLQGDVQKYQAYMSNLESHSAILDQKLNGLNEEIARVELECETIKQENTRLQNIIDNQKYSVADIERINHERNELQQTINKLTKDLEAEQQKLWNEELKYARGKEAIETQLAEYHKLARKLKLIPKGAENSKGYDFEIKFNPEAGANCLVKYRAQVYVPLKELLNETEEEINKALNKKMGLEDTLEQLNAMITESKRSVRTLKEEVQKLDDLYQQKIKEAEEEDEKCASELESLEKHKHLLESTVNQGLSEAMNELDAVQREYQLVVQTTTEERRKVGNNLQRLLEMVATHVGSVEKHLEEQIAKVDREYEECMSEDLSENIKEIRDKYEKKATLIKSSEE
For S514R, the “effect of a mutation on the interaction” value was “with no effect”. For P541S, the “effect of a mutation on the interaction” value was “with no effect”. In the case of R154G, the “effect of a mutation on the interaction” value is reported as “disrupting interaction strength”.

Variants of: B1
Details: with cdr2_human CDR2, Q01850
Sequence of cdr2_human CDR2, Q01850 (Q01850 whole entry): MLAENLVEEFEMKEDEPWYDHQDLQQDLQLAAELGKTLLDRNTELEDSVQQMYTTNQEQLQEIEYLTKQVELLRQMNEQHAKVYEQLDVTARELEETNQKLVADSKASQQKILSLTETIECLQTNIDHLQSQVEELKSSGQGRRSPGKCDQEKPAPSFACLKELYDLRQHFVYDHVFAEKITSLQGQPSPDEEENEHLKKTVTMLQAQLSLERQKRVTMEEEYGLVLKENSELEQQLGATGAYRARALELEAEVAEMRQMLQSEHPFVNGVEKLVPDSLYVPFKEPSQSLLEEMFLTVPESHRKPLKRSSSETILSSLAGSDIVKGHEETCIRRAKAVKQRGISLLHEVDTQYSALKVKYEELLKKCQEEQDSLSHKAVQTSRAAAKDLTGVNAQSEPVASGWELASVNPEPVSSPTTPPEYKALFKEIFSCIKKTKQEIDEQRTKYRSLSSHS
For R154G, the “effect of a mutation on the interaction” value was “disrupting interaction strength”.

Variants of: B1
Details: with lipa1_human PPFIA1, Q13136
R154G was tested, and the “effect of a mutation on the interaction” value was “with no effect”.

Variants of: B2
Details: with ub2l6_human UBE2L6, O14933
Sequence of ub2l6_human UBE2L6, O14933 (O14933 whole entry): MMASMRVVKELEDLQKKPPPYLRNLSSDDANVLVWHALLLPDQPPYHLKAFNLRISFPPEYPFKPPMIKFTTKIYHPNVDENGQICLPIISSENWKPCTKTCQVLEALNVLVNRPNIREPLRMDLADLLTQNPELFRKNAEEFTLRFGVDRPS
E29D was tested, and the “effect of a mutation on the interaction” value was “with no effect”.

Variants of: B2
Details: with bub1_human BUB1, O43683
Sequence of bub1_human BUB1, O43683 (O43683 whole entry, looked up): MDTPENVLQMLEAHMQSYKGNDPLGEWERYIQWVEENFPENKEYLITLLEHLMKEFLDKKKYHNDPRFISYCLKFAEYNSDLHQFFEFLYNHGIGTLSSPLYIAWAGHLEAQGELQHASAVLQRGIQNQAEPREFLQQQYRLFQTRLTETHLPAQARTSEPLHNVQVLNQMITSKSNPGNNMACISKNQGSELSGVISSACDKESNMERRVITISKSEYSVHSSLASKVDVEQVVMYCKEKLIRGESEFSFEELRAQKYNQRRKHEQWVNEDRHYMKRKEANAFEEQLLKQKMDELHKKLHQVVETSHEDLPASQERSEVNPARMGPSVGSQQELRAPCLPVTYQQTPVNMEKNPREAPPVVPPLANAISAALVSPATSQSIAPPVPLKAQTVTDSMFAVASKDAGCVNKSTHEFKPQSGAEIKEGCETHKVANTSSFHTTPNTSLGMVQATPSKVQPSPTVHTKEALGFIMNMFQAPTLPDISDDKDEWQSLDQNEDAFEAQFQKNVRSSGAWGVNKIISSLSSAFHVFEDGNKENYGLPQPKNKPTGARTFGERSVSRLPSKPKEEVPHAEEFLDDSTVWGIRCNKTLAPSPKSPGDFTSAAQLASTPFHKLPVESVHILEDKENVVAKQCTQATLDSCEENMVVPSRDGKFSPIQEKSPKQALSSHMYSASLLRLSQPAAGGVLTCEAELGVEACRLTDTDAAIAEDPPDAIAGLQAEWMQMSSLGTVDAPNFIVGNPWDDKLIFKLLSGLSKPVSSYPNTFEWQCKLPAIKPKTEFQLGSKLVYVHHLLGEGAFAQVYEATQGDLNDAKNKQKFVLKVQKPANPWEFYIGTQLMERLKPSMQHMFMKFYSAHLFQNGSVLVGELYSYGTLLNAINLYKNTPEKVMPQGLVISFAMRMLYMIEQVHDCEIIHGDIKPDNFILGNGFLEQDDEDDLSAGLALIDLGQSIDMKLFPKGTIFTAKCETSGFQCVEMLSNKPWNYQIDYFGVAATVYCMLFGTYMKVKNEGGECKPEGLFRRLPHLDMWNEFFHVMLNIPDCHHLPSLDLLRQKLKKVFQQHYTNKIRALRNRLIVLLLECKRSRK
With E29D the “effect of a mutation on the interaction” value was “with no effect”.

Variants of: B3
Details: with cep57_human CEP57, Q86XR8
A274T was tested, and the “effect of a mutation on the interaction” value was “with no effect”.
